Where two headings read alike, the source gives them in different places. Bridges are numbered along the chain shown (N, C = ends). Where no end group is shown, it is not given here. [ ]: non-standard residue; d: D form. staple K4 = not defined here; staple K5 = not defined here; L4A = not defined here; L5A = not defined here; K0 = not defined here; K4 = not defined here; K5 = not defined here; Aib = CC(C)(N)C(=O)O
T1: human GIPR (human, UniProt P48546 22-466)
T1 sequence (looked up): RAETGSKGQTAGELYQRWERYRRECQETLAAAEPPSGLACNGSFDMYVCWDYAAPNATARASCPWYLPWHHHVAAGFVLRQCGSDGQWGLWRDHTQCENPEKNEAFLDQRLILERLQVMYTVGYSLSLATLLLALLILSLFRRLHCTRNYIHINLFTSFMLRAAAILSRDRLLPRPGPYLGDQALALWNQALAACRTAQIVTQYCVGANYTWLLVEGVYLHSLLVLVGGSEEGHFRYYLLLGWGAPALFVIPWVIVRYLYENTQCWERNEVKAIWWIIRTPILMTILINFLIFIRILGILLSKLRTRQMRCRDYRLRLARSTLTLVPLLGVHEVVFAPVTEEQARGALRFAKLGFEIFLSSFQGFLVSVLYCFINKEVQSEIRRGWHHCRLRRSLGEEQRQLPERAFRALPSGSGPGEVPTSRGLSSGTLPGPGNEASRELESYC


Legend:
human GIPR [1] = biological target: T1, human GIPR
rat serum albumin (rat) = rat serum albumin (rat) (UniProt P02770); assay: calculated from the SPR affinity
[2] = biological target: human serum albumin (human) (UniProt P02768); assay: calculated from the SPR affinity
human GLP-1R [3] = biological target: T2, human GLP-1R (human, UniProt P43220 24-463)
Target sequence in this assay (P43220 24-463): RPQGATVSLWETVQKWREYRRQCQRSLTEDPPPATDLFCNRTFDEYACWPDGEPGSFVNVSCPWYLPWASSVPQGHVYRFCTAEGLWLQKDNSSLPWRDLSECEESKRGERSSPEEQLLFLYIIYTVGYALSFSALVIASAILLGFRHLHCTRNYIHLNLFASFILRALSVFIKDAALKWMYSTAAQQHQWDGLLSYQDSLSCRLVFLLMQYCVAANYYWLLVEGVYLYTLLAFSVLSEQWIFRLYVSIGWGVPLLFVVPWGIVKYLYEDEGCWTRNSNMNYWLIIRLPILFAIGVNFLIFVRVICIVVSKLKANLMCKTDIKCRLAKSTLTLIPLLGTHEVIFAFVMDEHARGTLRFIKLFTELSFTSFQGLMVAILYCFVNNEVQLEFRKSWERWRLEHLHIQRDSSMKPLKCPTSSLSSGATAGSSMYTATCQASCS

human GCGR = human GCGR (human, UniProt P47871 26-477); assay: cell-based or functional assay
human GLP-1R [4] = biological target: T2, human GLP-1R; assay: cell-based or functional assay
human GIPR [5] = biological target: T1, human GIPR; assay: cell-based or functional assay
human GLP-1R [6] = biological target: T2, human GLP-1R; assay: cell-based or functional assay; remark: listed apart in the source
human GLP-1R (human) = human GLP-1R (human) (UniProt P43220); assay: cell-based or functional assay
human GCGR (human) = human GCGR (human) (UniProt P47871); assay: cell-based or functional assay
human GIPR [7] = biological target: T1, human GIPR; assay: cell-based or functional assay; remark: listed apart in the source
human GLP-1R [8] = biological target: T2, human GLP-1R; assay: cell-based or functional assay; remark: listed apart in the source
human GLP-1R [9] = biological target: T2, human GLP-1R; assay: cell-based or functional assay; remark: listed apart in the source

Chain of human GCGR (P47871 26-477): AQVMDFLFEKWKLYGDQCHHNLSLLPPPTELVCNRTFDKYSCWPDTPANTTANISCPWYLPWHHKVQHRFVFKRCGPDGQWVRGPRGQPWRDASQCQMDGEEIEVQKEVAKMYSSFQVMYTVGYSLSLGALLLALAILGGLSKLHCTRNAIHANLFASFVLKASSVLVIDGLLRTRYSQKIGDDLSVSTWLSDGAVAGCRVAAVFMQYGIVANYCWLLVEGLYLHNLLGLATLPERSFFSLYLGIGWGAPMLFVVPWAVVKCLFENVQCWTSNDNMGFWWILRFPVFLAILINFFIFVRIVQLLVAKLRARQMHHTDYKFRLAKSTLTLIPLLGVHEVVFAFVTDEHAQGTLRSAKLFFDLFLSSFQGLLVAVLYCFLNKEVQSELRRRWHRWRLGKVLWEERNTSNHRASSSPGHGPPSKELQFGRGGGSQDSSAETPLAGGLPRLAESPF
Chain of human GLP-1R (human) (P43220 24-463): as the sequence (P43220 24-463) above
Chain of human GCGR (human) (P47871 26-477): as the sequence (P47871 26-477) above
Chain of rat serum albumin (rat) (P02770 25-608 limits assumed): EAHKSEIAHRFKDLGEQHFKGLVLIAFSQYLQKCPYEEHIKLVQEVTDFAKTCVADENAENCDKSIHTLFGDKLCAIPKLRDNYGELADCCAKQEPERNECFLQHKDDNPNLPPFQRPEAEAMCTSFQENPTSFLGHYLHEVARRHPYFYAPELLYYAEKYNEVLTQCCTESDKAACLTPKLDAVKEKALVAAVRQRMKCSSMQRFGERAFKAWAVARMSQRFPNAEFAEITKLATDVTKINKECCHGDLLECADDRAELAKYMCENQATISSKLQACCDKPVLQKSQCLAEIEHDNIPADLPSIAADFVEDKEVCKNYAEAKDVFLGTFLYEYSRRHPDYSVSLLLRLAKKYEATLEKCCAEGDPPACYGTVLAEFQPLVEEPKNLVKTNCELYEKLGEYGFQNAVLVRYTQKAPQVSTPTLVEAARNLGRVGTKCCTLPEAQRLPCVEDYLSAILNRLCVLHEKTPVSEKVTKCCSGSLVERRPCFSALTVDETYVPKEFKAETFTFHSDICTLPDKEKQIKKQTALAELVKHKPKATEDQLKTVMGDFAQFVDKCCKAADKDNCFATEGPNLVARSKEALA
Chain of human serum albumin (human) (P02768 25-609 limits assumed): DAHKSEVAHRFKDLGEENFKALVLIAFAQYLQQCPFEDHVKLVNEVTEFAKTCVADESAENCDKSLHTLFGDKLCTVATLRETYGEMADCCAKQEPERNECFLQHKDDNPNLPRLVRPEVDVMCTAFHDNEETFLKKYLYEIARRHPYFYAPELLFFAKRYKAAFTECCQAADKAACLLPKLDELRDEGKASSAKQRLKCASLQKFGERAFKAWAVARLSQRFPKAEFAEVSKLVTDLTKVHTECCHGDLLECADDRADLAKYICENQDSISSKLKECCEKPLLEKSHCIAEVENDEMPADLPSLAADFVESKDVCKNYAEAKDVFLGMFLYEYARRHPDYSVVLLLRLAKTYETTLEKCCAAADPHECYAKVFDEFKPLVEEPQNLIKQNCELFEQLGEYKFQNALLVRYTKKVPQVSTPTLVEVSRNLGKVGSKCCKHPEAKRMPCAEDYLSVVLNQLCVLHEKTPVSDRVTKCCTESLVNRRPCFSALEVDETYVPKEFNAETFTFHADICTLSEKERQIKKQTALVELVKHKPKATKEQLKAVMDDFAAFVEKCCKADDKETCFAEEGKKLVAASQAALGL

Row | Molecule | EC50 cAMP 0% FBS (human GCGR) [nM] | EC50 cAMP 0% FBS (human GLP-1R [4]) [nM] | EC50 Creluc (human GIPR [5]) [nM] | EC50 Creluc (human GLP-1R [6]) [nM] | also measured
1 | NNC0090-2746 (peptide) |  |  |  |  | EC50 (read off the curve), CRE-luciferase reporter, GIPR Creluc (human GIPR [1]): 0.008 nM
2 | semaglutide (peptide) |  |  |  |  | fu (unbound fraction) (rat serum albumin (rat)): 3.3%; fu (unbound fraction) [2]: 0.69%
3 | Tirzepatide (peptide) |  |  |  |  | EC50 (read off the curve), CRE-luciferase reporter, GLP1R-Creluc (human GLP-1R [3]): 0.2 nM
4 | H[dS]QGTFTSDYSKYLDEKAAKEFIKWLLRA (linker 17-24 via K4; reading uncertain) [Conjugate 123] | 0.451 | 2.37 |  |  | 
5 | H[dS]QGTFTSDYSKYLDEKAAKEFIKWLLNGGPSSGAPPPS (linker 17-24 via K0; ends not checked) [Conjugate 124] | 0.319 | 0.049 |  |  | 
6 | H[dS]QGTFTSDYSKYLDECAAKEFICWLLRA (linker 17-24 via L4A; reading uncertain) [Conjugate 136] | 0.559 | 2.87 |  |  | 
7 | Y[Aib]EGTFHSDYDIYKDKQAA[Aib]KFVQWLLAGGPSSGAPPPS (linker 14-21 via staple K4; reading uncertain) [Conjugate 165] |  |  | 5.31 | 13.8 | 
8 | H[dS]QGTFTSDYSKYLDECAAKEFICWLLNGGPSSGAPPPS (linker 17-24 via L4A; ends not checked) [Conjugate 135] |  |  |  |  | EC50 cAMP 0% FBS (human GLP-1R (human)): 0.0075 nM; EC50 cAMP 0% FBS (human GCGR (human)): 0.0068 nM
9 | YXEGTFTSDYSIYKDKQAAXKFVNWLLAGGPSSGAPPPS (staple K5 on Lys 14, 21; Aib 2, 20) [Conjugate 141] |  |  | 0.02 | 0.01 | EC50 cAMP 0% FBS (human GIPR [7]): 0.0048 nM; EC50 cAMP 0% FBS (human GLP-1R [8]): 0.022 nM
10 | YXEGTFTSDYSIYKDKQAALKFVAWLLAGGPSSGAPPPS (staple K4 on Lys 14, 21; Aib 2; D-Ser 8, 11; Nle 20) [Conjugate 169] |  |  | 11.3 | 1.32 | 
11 | YXEGTFHSDYDIYKDKQAALKFVAWLLAGGPSSGAPPPS (staple K4 on Lys 14, 21; Aib 2; Nle 20) [Conjugate 167] |  |  | 20.4 | 18.8 | 
12 | YXEGTFTSDYSIYKDKQAALKFVAWLLAGGPSSGAPPPS (staple K5 on Lys 14, 21; Aib 2; D-Ser 8, 11; Nle 20) [Conjugate 170] |  |  | 15.7 | 3.74 | 
13 | YXEGTFHSDYDIYKDKQAALKFVAWLLAGGPSSGAPPPS (staple K5 on Lys 14, 21; Aib 2; Nle 20) [Conjugate 168] |  |  | 303 | > 1000 | 
14 | HXQGTFTSDYSKYLDSKKAKEFVKWLLNXGPSSGAPPPS (not fully specified; staple K4 on Lys 17, 24; Aib 2, 29) [Conjugate 126] | 0.092 |  |  |  | 
15 | H[dS]QGTFTSDYSKYLDECAAKEFICWLLRA (linker 17-24 via L5A; reading uncertain) [Conjugate 137] | 0.444 | 2.02 |  |  | 
16 | H[Aib]EGTFTSDVSSYLEGCAAKEFICWLVKGRG-OH (linker 17-24 via L5A; reading uncertain) [Conjugate 186] |  |  |  |  | EC50 Cre-Luc (human GLP-1R [9]): 7.3 nM
17 | Y[Aib]EGTFTSDYSIYKDKQAA[Aib]KFVNWLLAGGPSSGAPPPS (linker 14-21 via staple K4; reading uncertain) [Conjugate 142] |  |  | 0.02 | 0.02 | EC50 cAMP 0% FBS (human GIPR [7]): 0.008 nM
18 | H[dS]QGTFTSDYSKYLDEKAAKEFIKWLLNGGPSSGAPPPS (linker 17-24 via K5; ends not checked) [Conjugate 121] | 2.54 | 1.36 |  |  | 
19 | HXQGTFTSDYSKYLDKKAAKEFKQWLLNGPSSGAPPPS (staple K4 on Lys 16, 23; Aib 2) [Conjugate 128] | 16.2 | 6.64 |  |  | 
20 | HXQGTFTSDYSKYLDKKKAKEFKQWLLNXGRNRNNIA (staple K4 on Lys 16, 23; Aib 2, 29) [Conjugate 129] | 56 | 31.1 |  |  | 
21 | HXQGTFTSDYSKYLDSKKAQEFVKWLLNGPSSGAPPPS (staple K4 on Lys 17, 24; Aib 2) [Conjugate 127] | 0.009 | 0.148 |  |  | 
22 | HXEGTFTSDVSSYLEGKAAKEFIKWLVKGRG (staple K5 on Lys 17, 24; Aib 2; C-terminal -OH) [Conjugate 181] |  |  |  |  | EC50 cAMP 0% FBS (human GLP-1R [9]): 0.026 nM
23 | H[dS]QGTFTSDYSKYLDEKAAKEFIKWLLNGGPSSGAPPPS (linker 17-24 via K4; ends not checked) [Conjugate 122] | 0.07 | 0.0037 |  |  | 
24 | H[dS]QGTFTSDYSKYLDECAAKEFICWLLNGGPSSGAPPPS (linker 17-24 via L5A; ends not checked) [Conjugate 138] |  |  |  |  | EC50 cAMP 0% FBS (human GLP-1R (human)): 0.908 nM; EC50 cAMP 0% FBS (human GCGR (human)): 1.42 nM
25 | Y[Aib]EGTFHSDYDIYKDKQAA[Aib]KFVQWLLAGGPSSGAPPPS (linker 14-21 via staple K5; reading uncertain) [Conjugate 166] |  |  | 12.6 | 83.9 | 
26 | HXQGTFTSDYSKYLDEKAAKEFIKWLLNGRNRNNIA (staple K4 on Lys 17, 24; Aib 2) [Conjugate 125] | 0.626 | 0.21 |  |  | 

Source: patent publication US20230071371A1 (Scripps Research, published 2023)
